Laboratory results as given in patent publication US20230414780A1 (VECT HORUS, published 2023).
Each block holds one binder with its values, some of them ahead of it.

Key:
[1] = molecular target: T1, murine TfR expressed by murine neuroblastoma Neuro-2a cells (mouse, UniProt Q62351 1-763); assay: competition with C5-Alexa680 (100 nM) on living Neuro-2a cells, 3 hrs at 37 C, flow cytometry; Ki/app, mean ± SD
T1 construct: whole, on cells; also called mTfR (N2a cells)
Experimental: The binding of VHH-Oligo and VHH-hFc-Oligo conjugates to mTfR was evaluated using a competition assay on living cells expressing the receptor of interest, namely murine neuroblastoma Neuro-2a cells (N2a). N2a cells were grown in Dulbecco's Modified Eagle Medium (DMEM) GlutaMAX supplemented with 10% v/v FBS in 5% CO₂ at 37° C. Cells were seeded two days before experiments in 96-well plates at a density of 50.000 cells/well. […] Resuspended cells were transferred in a 96-deepwell plate (V-bottom) containing 1% fetal bovine serum (FBS)/0.02% sodium azide in phosphate-buffered saline (PBS) and then centrifuged for 5 min at 2000 rpm at 4° C. After removing the supernatant, 5 mM EDTA in D-PBS and 4% paraformaldehyde (PFA) (v/v 1:1) were added into wells to fix cells for 15 min at room temperature. PFA was removed by centrifugation (5 min, 3000 rpm, 4° C.) and cells were resuspended with 5 mM EDTA in D-PBS. Then the cellular A680-associated fluorescence signal was quantified using an Attune™ NxT flow cytometer (Thermo Fisher Scientific) equipped with Attune™ NxT v3.1.2. Experimental data (experimental triplicates) were fitted with GraphPad Prism® software using a nonlinear fit to determine the apparent Ki inhibition constants.

[2] = molecular target: T1, murine TfR expressed by murine …; assay: cell-based or functional assay
[3] = molecular target: T2, human transferrin receptor (hTfR) fused to EGFP, on CHO cells (human, UniProt P02786 1-760); assay: apparent Kd, cell-based assay
T2 construct: whole, on cells; also called human TfR; CHO-hTfR-EGFP; not shown: EGFP from pEGFP-C1 vector, fused to the N-terminal (intracellular) end of hTfR

[4] = molecular target: T2, human transferrin receptor (hTfR) fused …; assay: cell-based assay on hTfR; Kd/app (the text, paragraph 408, gives 16.7 nM for this molecule)
[5] = molecular target: T2, human transferrin receptor (hTfR) fused …; assay: apparent Kd, flow cytometry, CHO cells
[6] = molecular target: T3, mouse transferrin receptor (mTfR) fused to EGFP, on CHO cells (mouse, UniProt Q62351 1-763); assay: flow cytometry on CHO-mTfR-EGFP cells, 1 hr at 4 C, anti-6His + Alexa647 anti-mouse; apparent Kd, mean ± SEM of 3 experiments
T3 construct: whole, on cells; also called mouse TfR; CHO-mTfR-EGFP; not shown: EGFP
Experimental: (§1) (A) CHO-hTfR-EGFP and CHO-mTfR-EGFP cells were incubated 1 hr at 4° C. with various concentrations of VHHs, detected with a mouse anti-6His (1/1000) and an Alexa647-conjugated anti-mouse secondary antibody (1/400). Measurements were performed using flow cytometry. The ratio of fluorescence intensity for each point was normalized with the corresponding EGFP signal (receptor expression) and gave rise to the arbitrary unit. Data are presented as mean±SEM of 3 independent experiments. (B) Characteristics of VHHs: Molecular Weight (Da); Theoretical pI; Apparent Kd on human TfR (nM); Apparent Kd on mouse TfR (nM). Data are presented as mean±SEM of 3 independent experiments. NB: no binding, LB: low binding.
(§2) All experiments were performed in 96 well plates using 2×10⁵ cells/well, at 4° C. with shaking. CHO cell lines stably expressing the hTfR or the mTfR fused to EGFP or CHO WT cells were saturated with PBS/BSA 2% solution during 30 min to avoid non-specific binding, followed by incubation with purified VHHs at concentrations ranging from 50 μM to 5 μM for 1 hr. After one wash in PBS/BSA 2%, cells were incubated for 1 hr with an anti-6His tag antibody (mouse), washed twice with PBS/BSA 2%, and incubated for 45 min with an Alexa647-conjugated anti-mouse secondary antibody. […] Fluorescence levels were assessed using an Attune NxT Flow Cytometer (Thermo Fisher Scientific).

[7] = molecular target: T2, human transferrin receptor (hTfR) fused …; assay: flow cytometry on CHO-hTfR-EGFP cells, 1 hr at 4 C, anti-6His + Alexa647 anti-mouse; apparent Kd, mean ± SEM of 3 experiments
Experimental: as §1, §2

[8] = molecular target: T3, mouse transferrin receptor (mTfR) fused …; assay: flow cytometry on CHO-mTfR-EGFP cells, 1 hr at 4 C, anti-6His + Alexa647 anti-mouse
Experimental: as §1, §2

[9] = molecular target: T2, human transferrin receptor (hTfR) fused …; assay: cell-based assay on hTfR; Kd/app (the text, paragraph 408, gives 25.6 nM for this molecule)
[10] = molecular target: T3, mouse transferrin receptor (mTfR) fused …; assay: apparent Kd, cell-based assay
[11] = molecular target: T3, mouse transferrin receptor (mTfR) fused …; assay: flow cytometry, CHO cells
Experimental: (§3) The binding properties of VHHs with affinity for the TfR from different species (i.e., human (h), mouse (m) and rhesus monkey (rh)) were tested using flow cytometry, and apparent affinities (Kd app) were determined. All experiments were performed in 96 well plates using 2×10⁵ cells/well, at 4° C. with shaking. CHO cell lines expressing the hTfR, mTfR or rhTfR fused to EGFP were saturated with PBS/BSA 2% solution during 30 min to avoid nonspecific binding, followed by incubation with purified VHHs at increasing concentrations for 1 hr. After one wash in PBS/BSA 2%, cells were incubated for 1 hr with an anti-6His tag antibody (mouse), washed twice with PBS/BSA 2%, and incubated for 1 hr with an Alexa647-conjugated anti-mouse secondary antibody. After two last washes in PBS/BSA 2%, cells were fixed by incubation for 15 min with PBS/PFA 2%, washed once with PBS and finally resuspended in PBS. Fluorescence levels were assessed using an Attune NxT flow cytometer (Thermo Fisher Scientific). Experimental data were fitted with GraphPad Prism® software using a nonlinear fit to determine the apparent Kd constants. […] Table 5 hereafter summarizes apparent Kd obtained for the tested VHHs.

[12] = molecular target: T2, human transferrin receptor (hTfR) fused …; assay: flow cytometry, CHO cells
Experimental: as §3

[13] = molecular target: T2, human transferrin receptor (hTfR) fused …; assay: competition flow cytometry on CHO-hTfR-EGFP cells, 4 C; VHH competitor in dilution series, phage-H1 tracer at EC80, anti-M13-A647
Experimental: FIGS. 17A-17D: Competition assays between VHHs and phage-VHHs. CHO-hTfR-EGFP cells were incubated 1 hr at 4° C. with VHHs (competitors) at increasing concentrations. Phage-VHHs (tracers) were then added at EC80 and incubated for 1 more hr. Phage-VHHs were detected with an anti-M13-A647 antibody (1/200). Fluorescence levels were assessed using flow cytometry. The ratio of fluorescence intensity for each point was normalized with the corresponding EGFP signal (receptor expression) and gave rise to the arbitrary unit. Data are presented as mean±SEM of independent experiments.
To evaluate whether selected VHHs compete one with the other for binding to the TfR receptor, competition assays using flow cytometry experiments were performed. All experiments were performed in 96 well plates using 2×10⁵ cells/well, at 4° C. with shaking. CHO cell line expressing the hTfR fused to EGFP was saturated with PBS/BSA 2% solution during 30 min to avoid nonspecific binding, followed by incubation with VHH (competitors) at increasing concentrations for 1 hr. Then, phage-VHHs (tracers) at EC80 were added and incubated 1 hr more. To detect the phage-VHHs, cells were washed twice with PBS/BSA 2% and incubated for 1 hr with an Alexa647-conjugated anti-M13 antibody. […] Fluorescence levels were assessed using an Attune NxT flow cytometer (Thermo Fisher Scientific). […]

[14] = molecular target: T4, rhesus monkey transferrin receptor (rhTfR) fused to EGFP, on CHO cells (rhesus monkey); assay: apparent Kd, flow cytometry, CHO cells
T4 construct: whole, on cells; also called rhesus monkey TfR
Procedure, shortened: (§4)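 CHO cells expressing TfR-EGFP fusions, blocked in PBS/BSA 2%, then incubated with increasing VHH concentrations for 1 hr at 4° C. Bound VHH detected via anti-6His antibody and Alexa647 secondary, cells PFA-fixed, read by flow cytometry. Apparent Kd from nonlinear fit.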

[15] = molecular target: T2, human transferrin receptor (hTfR) fused …; assay: apparent Kd, flow cytometry, CHO cells; remark: listed apart in the source
Procedure, shortened: as §4

T3 sequence (Q62351 whole entry, the tested form may be a part): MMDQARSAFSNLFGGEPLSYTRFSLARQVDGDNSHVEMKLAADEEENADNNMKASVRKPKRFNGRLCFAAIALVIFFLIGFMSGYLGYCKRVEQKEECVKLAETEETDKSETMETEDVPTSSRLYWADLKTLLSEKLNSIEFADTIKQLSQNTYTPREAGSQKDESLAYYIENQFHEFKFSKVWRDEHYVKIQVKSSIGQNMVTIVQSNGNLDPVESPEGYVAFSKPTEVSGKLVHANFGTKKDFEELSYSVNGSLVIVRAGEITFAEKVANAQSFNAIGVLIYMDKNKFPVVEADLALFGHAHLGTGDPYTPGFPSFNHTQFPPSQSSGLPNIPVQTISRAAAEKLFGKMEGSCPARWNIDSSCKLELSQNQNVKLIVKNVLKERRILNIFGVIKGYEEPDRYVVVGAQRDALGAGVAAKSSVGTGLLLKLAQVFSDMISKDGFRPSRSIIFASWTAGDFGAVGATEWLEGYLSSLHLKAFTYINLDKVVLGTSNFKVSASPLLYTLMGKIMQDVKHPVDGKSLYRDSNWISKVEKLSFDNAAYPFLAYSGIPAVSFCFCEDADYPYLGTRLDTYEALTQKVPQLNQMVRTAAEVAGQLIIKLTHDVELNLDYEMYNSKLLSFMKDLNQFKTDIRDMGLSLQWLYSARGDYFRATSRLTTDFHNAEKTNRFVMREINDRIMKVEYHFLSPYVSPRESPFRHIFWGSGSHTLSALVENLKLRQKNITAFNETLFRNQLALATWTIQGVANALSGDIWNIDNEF
T2 sequence (P02786 whole entry, the tested form may be a part): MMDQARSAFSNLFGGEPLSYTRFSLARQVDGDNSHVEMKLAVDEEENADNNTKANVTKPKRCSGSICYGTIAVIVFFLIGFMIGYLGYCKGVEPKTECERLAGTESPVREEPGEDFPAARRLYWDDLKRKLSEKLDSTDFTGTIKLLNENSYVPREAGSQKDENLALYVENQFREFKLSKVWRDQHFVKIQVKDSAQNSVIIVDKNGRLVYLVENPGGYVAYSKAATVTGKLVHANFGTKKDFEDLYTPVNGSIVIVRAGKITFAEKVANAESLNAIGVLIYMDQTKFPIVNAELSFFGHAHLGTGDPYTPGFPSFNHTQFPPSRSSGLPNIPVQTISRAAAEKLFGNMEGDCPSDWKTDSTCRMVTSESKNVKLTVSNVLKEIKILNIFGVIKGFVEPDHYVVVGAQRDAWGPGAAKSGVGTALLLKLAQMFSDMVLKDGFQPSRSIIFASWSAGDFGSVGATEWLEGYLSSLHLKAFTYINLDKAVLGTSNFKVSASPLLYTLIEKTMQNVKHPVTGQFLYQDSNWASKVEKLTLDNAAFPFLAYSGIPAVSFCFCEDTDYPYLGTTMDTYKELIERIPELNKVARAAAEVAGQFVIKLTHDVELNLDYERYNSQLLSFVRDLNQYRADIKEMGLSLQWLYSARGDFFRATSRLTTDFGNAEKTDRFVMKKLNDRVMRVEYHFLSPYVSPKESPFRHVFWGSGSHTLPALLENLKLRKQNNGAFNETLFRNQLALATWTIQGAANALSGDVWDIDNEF
T1 sequence (Q62351 whole entry): as the sequence (Q62351 whole entry, the tested form may be a part) above

B2: C5V30-NT(8-13) (VHH)
VHH: EVQLVESGGGVVQPGGSLKLSCVASGTDKSINFIRWYRQAPGKQREFVAGFTATGNTNYADSMKGRFTISRDNTKNAVYLQIDSLKPEDTAVYYCYMLDKWGQGTQVTVSS
Kd [3]: 16.7 nM
Kd [4]: 25.6 nM

B3: VHH A6 (C5^V6) (VHH)
VHH: EVQLVESGGGVVQPGGSLKLSCVASGTDFSINFIRWYRQAPGKQREFVAGFTATGNTNYADSMKGRFTISRDNTKNAVYLQIDSLKPEDTAVYYCYALDKWGQGTQVTVSS
Kd [5]: 3 to 4 nM
Kd [6]: 182 nM
Kd [7]: 3.4 nM

B4: VHH A7 (C5^V7) (VHH)
VHH: EVQLVESGGGVVQPGGSLKLSCVASGTDFSINFIRWYRQAPGKQREFVAGFTATGNTNYADSMKGRFTISRDNTKNAVYLQIDSLKPEDTAVYYCYMADKWGQGTQVTVSS
Kd [5]: 255 nM
binding result [8]: binds

B5: B8V31-NT(8-13) (VHH)
VHH: EVQLVESGGGVVQPGGSLRLSCAASGEIKSINFMRWYRQAPGKQREWVAGFTRDGSTNYPDSAKGRFTISRDNAKNTVYLQIDSLKPEDTAVYYCYMLDTWGQGTQVTVSS
Kd [9]: 16.7 nM
Kd [3]: 25.6 nM

B6: B8 h1-NT(8-13) (VHH)
VHH: EVQLVESGGGVVQPGGSLRLSCAASGEIFSINFMRWYRQAPGKGLEWVAGFTRDGSTNYPDSVKGRFTISRDNAKNTVYLQMNSLRPEDTAVYYCYMLDTWGQGTQVTVSS
Kd [10]: 2.8 nM

B7: B8V1-NT(8-13) (VHH)
VHH: EVQLVESGGGVVQPGGSLRLSCAADGEIFSINFMRWYRQAPGKQREWVAGFTRDGSTNYPDSAKGRFTISRDNAKNTVYLQIDSLKPEDTAVYYCYMLDTWGQGTQVTVSS
Kd [10]: 8.3 nM

Second part, the binder after the results:

Ki [1]: 164 nM
IC50 of mSOD1 mRNA downregulation, free uptake on Neuro-2a cells [2]: 7.4 nM
B1: C5-siSOD1m-5'VP (VHH, not shown: small tags and cut ends)
VHH: EVQLVESGGGVVQPGGSLKLSCVASGTDFSINFIRWYRQAPGKQREFVAGFTATGNTNYADSMKGRFTISRDNTKNAVYLQIDSLKPEDTAVYYCYMLDKWGQGTQVTVSS
modifications: siSOD1m-5'VP siRNA duplex linked by a stable linker (azide/alkyne click) to the VHH
notes: also called VHH-siSOD1m-5'VP wherein VHH is C5

binding result [11]: no binding
binding result [12]: no binding
B8: D12 (neg ctrl) (VHH)
VHH: EVQLVESGGGLVQPGGSLRLSCAASGFTFGSYVMSWVRQAPGKGPEWVSTVSSGGGTTYYADSVKGRFTISRDNAQNTLYLQMNSLKPEDTAVYYCATGRTGLGEGDHRGQGTQVTSSAAAEQKLISEEDLNGAAHHHHHHGS
notes: also called control VHH D12

IC50 (read off the curve) [13]: ~40 nM
Kd [14]: 2.1 nM
Kd [15]: 3.4 nM
binding result [11]: no binding
B9: E8 (VHH)
VHH: EVQLVESGGRLVQAGGSLRLSCTASGLAFSTHTMHWFRQAPGKEREFVGAIRWSDEDTEYADSVKGRFTISRDNAKSTVYLQMNNLKPEDTAVYYCAAARGVGTSGHMKYWGQGTQVTVSS
